Experimental data: patent publication US20230070339A1 (UNIVERSITY OF SOUTHAMPTON, published 2023)

Target: T1, LILRB3-hFc recombinant protein (human, UniProt O75022 24-443)
T1 construct: extracellular domain; also called LILRB-Fc; the extracellular LILRB3 domain with a human Fc tag; not shown: human Fc tag
Assay: SPR (Biacore T100), LILRB3-hFc amine-coupled on CM5 chip, mAb as analyte, 1:1 model
Protocol: SPR was performed with the Biacore T100 (GE Healthcare, UK) as per the manufacturer's instructions. LILRB3-hFc recombinant protein (the extracellular LILRB3 domain with a human Fc tag) was used as the ligand and immobilized by amine coupling onto a series S sensor chip (CM5). Various LILRB3 mAb were used as “analytes” and flowed across the chip, and SPR measured.

T1 sequence (O75022 24-443): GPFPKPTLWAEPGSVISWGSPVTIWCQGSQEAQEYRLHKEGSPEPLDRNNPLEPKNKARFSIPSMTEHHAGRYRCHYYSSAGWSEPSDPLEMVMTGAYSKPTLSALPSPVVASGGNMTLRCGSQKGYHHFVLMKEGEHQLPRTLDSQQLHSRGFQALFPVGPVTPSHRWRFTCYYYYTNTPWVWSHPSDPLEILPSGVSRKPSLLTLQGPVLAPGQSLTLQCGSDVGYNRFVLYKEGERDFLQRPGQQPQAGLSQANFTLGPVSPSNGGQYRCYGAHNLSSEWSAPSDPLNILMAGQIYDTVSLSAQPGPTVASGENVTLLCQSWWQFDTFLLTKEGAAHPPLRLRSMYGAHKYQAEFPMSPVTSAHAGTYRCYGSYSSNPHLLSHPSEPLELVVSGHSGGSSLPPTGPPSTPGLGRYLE

B1: LILRB3 mAb clone A16 (antibody, human IgG1, V domains shown)
VH: EVQLLESGGGLVQPGGSLRLSCAASGFTFSSYWMSWVRQAPGKGLEWVSRINTHGTNIDYADSVKGRFTISRDNSKNTLYLQMNSLRAEDTAVYYCVGVAGTGWFDPWGQGTLVTVSS
VL: QSVLTQPPSASGTPGQRVTISCTGSSSNIGAGYDVHWYQQLPGTAPKLLIYGNNNRPSGVPDRFSGSKSGTSASLAISGLRSEDEADYYCQSYDTSLSGSVFGGGTKLTVLG
notes: Fully human IgG1, full-length IgG; only variable domains tied to the clone; APC-labelled for staining of primary cells; deglycosylated in the T cell assay
Kd: 0.816 nM
